This note sets out measurements from WO2021175954A1 (dated 2021).

“And” between values parts separate entries of the source, which are not always exact repeats. Equal entries are not always repeated. A value given as a limit tells only on which side of the number the result lay.

The EC50 is the concentration needed to bring the measured effect to its halfway point. Low readings indicate a more potent agent, high ones a less potent agent.

Assay [1] deals with T1, human BTNL8/BTNL3 heterodimer expressed on HEK-293T cells (human, UniProt Q6UXE8 18-466).
T1 sequence 1: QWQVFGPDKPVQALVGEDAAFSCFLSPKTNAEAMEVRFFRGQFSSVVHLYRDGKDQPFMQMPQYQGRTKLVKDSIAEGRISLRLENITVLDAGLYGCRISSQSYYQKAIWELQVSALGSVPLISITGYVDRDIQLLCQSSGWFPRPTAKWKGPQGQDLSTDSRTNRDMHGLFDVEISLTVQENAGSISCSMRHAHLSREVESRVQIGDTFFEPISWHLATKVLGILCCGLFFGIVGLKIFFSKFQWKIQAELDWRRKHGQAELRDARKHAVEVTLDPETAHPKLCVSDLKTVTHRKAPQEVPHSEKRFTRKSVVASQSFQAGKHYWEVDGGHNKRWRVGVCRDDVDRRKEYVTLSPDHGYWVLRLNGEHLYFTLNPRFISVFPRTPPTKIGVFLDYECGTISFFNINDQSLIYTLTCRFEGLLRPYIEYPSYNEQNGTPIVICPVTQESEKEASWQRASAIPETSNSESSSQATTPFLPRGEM
T1 sequence 2: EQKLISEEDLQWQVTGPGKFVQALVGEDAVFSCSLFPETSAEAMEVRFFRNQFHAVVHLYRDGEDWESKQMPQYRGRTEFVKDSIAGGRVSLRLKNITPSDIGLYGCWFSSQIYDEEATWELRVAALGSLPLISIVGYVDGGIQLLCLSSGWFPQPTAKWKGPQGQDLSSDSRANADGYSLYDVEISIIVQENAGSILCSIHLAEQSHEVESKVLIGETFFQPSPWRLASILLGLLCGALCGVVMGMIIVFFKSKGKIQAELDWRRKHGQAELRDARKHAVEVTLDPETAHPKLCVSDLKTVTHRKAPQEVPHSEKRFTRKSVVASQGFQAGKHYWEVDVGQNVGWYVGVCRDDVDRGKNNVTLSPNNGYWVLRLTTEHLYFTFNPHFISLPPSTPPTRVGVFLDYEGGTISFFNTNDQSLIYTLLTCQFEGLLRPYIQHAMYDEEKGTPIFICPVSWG
Briefly: cell-based or functional assay.

Assay [2] addresses T2, human BTNL8 expressed on cells (HEK-BTNL8 transductants); also endogenous on CaCo-2, HL-60 and primary gut … (human, UniProt Q6UX41 18-500).
T2 construct: also called Homo sapiens butyrophilin like 8
T2 sequence: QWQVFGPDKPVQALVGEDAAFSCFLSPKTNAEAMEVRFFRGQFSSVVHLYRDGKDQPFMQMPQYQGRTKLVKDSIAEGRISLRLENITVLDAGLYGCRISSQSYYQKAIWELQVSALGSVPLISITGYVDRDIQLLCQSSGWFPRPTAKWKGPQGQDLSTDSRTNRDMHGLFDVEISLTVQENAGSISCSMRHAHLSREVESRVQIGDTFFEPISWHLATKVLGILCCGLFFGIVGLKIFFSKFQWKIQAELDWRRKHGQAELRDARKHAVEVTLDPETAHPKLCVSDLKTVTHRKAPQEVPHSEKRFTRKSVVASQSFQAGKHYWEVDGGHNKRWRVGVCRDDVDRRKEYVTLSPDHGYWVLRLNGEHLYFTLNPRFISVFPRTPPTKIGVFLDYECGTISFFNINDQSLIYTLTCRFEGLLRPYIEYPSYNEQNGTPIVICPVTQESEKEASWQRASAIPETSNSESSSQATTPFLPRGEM
Briefly: flow cytometry on HEK-BTNL8 cells, chimeric format. (In general: In flow cytometry, cells or beads pass a laser one at a time.)

Assay [3] has as its target T1, human BTNL8/BTNL3 heterodimer expressed …. Briefly: flow cytometry on HEK-BTNL3/BTNL8 cells, chimeric format.
The target in assay [4] is T3, human BTNL3 with N-terminal c-Myc tag expressed on HEK-293T cells (human, UniProt Q6UXE8 18-466).
T3 construct: whole, on cells; also called HEK-BTNL3; myc-tagged BTNL3
T3 sequence: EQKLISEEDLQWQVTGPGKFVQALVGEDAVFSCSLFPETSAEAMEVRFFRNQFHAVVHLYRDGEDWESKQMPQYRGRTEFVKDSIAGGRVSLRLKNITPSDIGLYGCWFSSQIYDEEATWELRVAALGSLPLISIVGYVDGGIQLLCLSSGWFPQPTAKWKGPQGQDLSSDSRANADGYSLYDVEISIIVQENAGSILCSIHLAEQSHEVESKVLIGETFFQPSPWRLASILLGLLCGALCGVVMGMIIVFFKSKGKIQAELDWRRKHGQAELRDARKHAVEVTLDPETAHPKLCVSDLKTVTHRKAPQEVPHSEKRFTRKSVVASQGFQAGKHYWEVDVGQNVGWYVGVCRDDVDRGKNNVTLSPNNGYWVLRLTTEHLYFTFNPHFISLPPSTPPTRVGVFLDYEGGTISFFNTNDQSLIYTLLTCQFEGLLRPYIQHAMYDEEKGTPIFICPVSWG
Briefly: flow cytometry on HEK-BTNL3 cells.

Assay [5] addresses T4, recombinant human BTNL8 protein (BLI) (human, UniProt Q6UX41 18-238, limits assumed).
T4 construct: it may be the same rhBTNL8-Fc as in the Luminex assay; also called hBTNL8; recombinant BTNL8 protein
T4 sequence: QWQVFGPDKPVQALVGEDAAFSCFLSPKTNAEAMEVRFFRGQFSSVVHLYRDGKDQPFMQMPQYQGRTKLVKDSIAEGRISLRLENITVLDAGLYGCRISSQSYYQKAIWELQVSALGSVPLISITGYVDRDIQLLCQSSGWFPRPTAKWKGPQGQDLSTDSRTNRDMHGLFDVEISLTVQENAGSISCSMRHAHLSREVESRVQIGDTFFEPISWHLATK
Briefly: BLI, recombinant human BTNL8. A general note: Biolayer interferometry detects binding as a change in optical thickness at a sensor tip.

B1: chimeric anti-BTNL8 mAb mAbX2 (antibody, V domains shown)
VH: EVQLQQSGAEFVRPGASVKMSCTGSGLNIEDDYMHWVKQRPEQGLEWIGRIDPANGNTKYGPKFQDKATITADTSSNTAYLQLSSLTAEDTAVYYCTRNYYDGSLYYFDYWGQGTTLTVSS
VL: QIVLTQSPAIMSASLGEEITLTCSASSSVSYMHWYQQKSGTSPKLLIYSTSNLASGVPSRFSGSGSGTFYSLTISSVEAEDAADYYCHQWSRYPYTFGGGTKLEIK
Consider B1, for which the “IC50/EC50 of inhibition of Vy4V51TCR reporter cell activation (NFAT-GFP, CD69, TCRV51)” value in assay [1] was < 0.5 µg/mL and < 3.3 nM. The EC50 in assay [2] is < 0.5 µg/mL and < 3.3 nM; in assay [3] it was < 0.5 µg/mL and < 3.3 nM.

B2: reference murine antibody mAb X2 (antibody, V domains shown)
VH: EVQLQQSGAEFVRPGASVKMSCTGSGLNIEDDYMHWVKQRPEQGLEWIGRIDPANGNTKYGPKFQDKATITADTSSNTAYLQLSSLTAEDTAVYYCTRNYYDGSLYYFDYWGQGTTLTVSS
VL: QIVLTQSPAIMSASLGEEITLTCSASSSVSYMHWYQQKSGTSPKLLIYSTSNLASGVPSRFSGSGSGTFYSLTISSVEAEDAADYYCHQWSRYPYTFGGGTKLEIK
notes: Murine monoclonal antibody, tested as hybridoma supernatant or purified from it
For the molecule B2, the binding result in assay [4] is reported as “no binding”.

B3: chimeric anti-BTNL8 mAb mAbX4 (antibody, V domains shown)
VH: EVQLQQSGAELVRPGASVKLSCTASGFNIKDDYMHWVKQRPEQALEWIGRIDPANGNTKYVPKFQDKATITADTSSNTASLQLSSLTSEDTAVYYCARWGIYDGYYYTMDSWGQGTSVTVSS
VL: QNVLIQSPAIMSASPGEKVTITCSASSSVSYMHWFQQKPGTSPKLWIYSTSNLASGVPARFSGSGSGTSYSLTISRMEAADAATYFCQQRSRYPYTFGGGTKLEIK
B3: the “IC50/EC50 of inhibition of Vy4V51TCR reporter cell activation (NFAT-GFP, CD69, TCRV51)” value in assay [1] was < 0.5 µg/mL and < 3.3 nM. Moreover, the EC50 in assay [2] was < 0.5 µg/mL and < 3.3 nM; in assay [3] it was < 0.5 µg/mL and < 3.3 nM.

B4: reference murine antibody mAb X5 (antibody, V domains shown)
VH: EVQLQQSGAELVRPGASIKLSCTASGFNIEDDYMHWVRQRPVQGLEWIGRIDPANGNANFAPKFQDKATITADTSSNTAYLQLSSLASEDTAVYYCTREGGLYYGNSDAMDYWGQGTSVTVSS
VL: QIVLTQSPAIMSASPGEKVTITCSARSSVSYMQWIQQKPGTSPKLWIYSTSNLASGVPDRFSGSGSGTSYSLTISRMEAEDAATYYCQQRSRYPRTFGGGTKLEIK
notes: as for B2
Consider B4, for which the binding result in assay [4] is given as “no binding”.

B5: reference murine antibody mAb X4 (antibody, V domains shown)
VH: EVQLQQSGAELVRPGASVKLSCTASGFNIKDDYMHWVKQRPEQALEWIGRIDPANGNTKYVPKFQDKATITADTSSNTASLQLSSLTSEDTAVYYCARWGIYDGYYYTMDSWGQGTSVTVSS
VL: QNVLIQSPAIMSASPGEKVTITCSASSSVSYMHWFQQKPGTSPKLWIYSTSNLASGVPARFSGSGSGTSYSLTISRMEAADAATYFCQQRSRYPYTFGGGTKLEIK
notes: as for B2
As for B5, the binding result in assay [4] is reported as “no binding”.

B6: chimeric anti-BTNL8 mAb mAbX5 (antibody, V domains shown)
VH: EVQLQQSGAELVRPGASIKLSCTASGFNIEDDYMHWVRQRPVQGLEWIGRIDPANGNANFAPKFQDKATITADTSSNTAYLQLSSLASEDTAVYYCTREGGLYYGNSDAMDYWGQGTSVTVSS
VL: QIVLTQSPAIMSASPGEKVTITCSARSSVSYMQWIQQKPGTSPKLWIYSTSNLASGVPDRFSGSGSGTSYSLTISRMEAEDAATYYCQQRSRYPRTFGGGTKLEIK
For B6, the “IC50/EC50 of inhibition of Vy4V51TCR reporter cell activation (NFAT-GFP, CD69, TCRV51)” value in assay [1] is < 0.5 µg/mL and < 3.3 nM. Also, the EC50 in assay [2] was < 0.5 µg/mL and < 3.3 nM; in assay [3] it was < 0.5 µg/mL and < 3.3 nM.

B7: chimeric anti-BTNL8 mAb mAbX3 (antibody, V domains shown)
VH: EVQLQQSGAELVRPGASVKLSCTASGFNIKDDYMHWVKQRPEQGLEWIGRIDPANANTKYAPKFQDKATITADTSSNTAYLHLSSLTSEDSAVYYCARNYYDGSPYYFDYWGQGTTLTVSS
VL: NIVMTQSPKSMSMSVGERVTLTCKASENVVTYVSWYQQKPEQSPKLLIYGASNRYTGVPDRFTGSGSATDFTLTISSVQAEDAAGYYCHQWSRYPYTFGGGTKLEIK
B7: the binding result in assay [5] is listed as “no binding”.

B8: chimeric anti-BTNL8 mAb mAbX1 (antibody, V domains shown)
VH: QVQLQQSGAELARPGASVKLSCKASGYIFTSYGIGWVKQRTGQGLEWIGEVYPRNGHSYYNEKFKGKATLTADRSSSTAYMQLSSLTSEDSAVYFCARGGTGSQLDYWGQGTTLTVSS
VL: DIQMTQSPASLSASVGETVTITCRASENIYSYLAWYQQKQGKSPHLLVYNAKTLAEGVPSRFSGSGSGTQFSLRISSLQPEDFGNYYCQHHYGTYTFGGGTKLEIK
notes: also called mAbXl
On to B8, for which the “IC50/EC50 of inhibition of Vy4V51TCR reporter cell activation (NFAT-GFP, CD69, TCRV51)” value in assay [1] is < 0.5 µg/mL and < 3.3 nM. In addition, the concentration for a half-maximal effect (EC50) was < 0.5 µg/mL and < 3.3 nM in assay [2]; < 0.5 µg/mL and < 3.3 nM in assay [3].

B9: reference murine antibody mAb X1 (antibody, V domains shown)
VH: QVQLQQSGAELARPGASVKLSCKASGYIFTSYGIGWVKQRTGQGLEWIGEVYPRNGHSYYNEKFKGKATLTADRSSSTAYMQLSSLTSEDSAVYFCARGGTGSQLDYWGQGTTLTVSS
VL: DIQMTQSPASLSASVGETVTITCRASENIYSYLAWYQQKQGKSPHLLVYNAKTLAEGVPSRFSGSGSGTQFSLRISSLQPEDFGNYYCQHHYGTYTFGGGTKLEIK
notes: as for B2
For the molecule B9, the binding result in assay [4] was “no binding”.
